B1: Nanobody 7B2 (VHH)
VHH: EVQLVESGGGLVQAGDSLRLSCAASGRTFSSYAMGWFRQAPGKEREFVAAISWSDGSTYYADSVKGRFTISRDNAKNTVYLQMNSLKPEDTAVYYCAADLTSTNPGSYIYIWAYDYWGQGTQVTVSS
B2: Nanobody 191D3 (VHH)
VHH: EVQLVESGGGLVQAGGSLRLSCEASGRTYSRYGMGWFRQAPGKEREFVAAVSRLSGPRTVYADSVKGRFTISRDNAENTVYLQMNSLKPEDTAVYTCAAELTNRNSGAYYYAWAYDYWGQGTQVTVSS
B3: Nanobody 1E4 (VHH)
VHH: EVQLVESGGGLVQAGGSLRLSCEASGRTFSSYGMGWFRQAPGKEREFVAAVSRLSGPRTVYADSVKGRFTISRDNAENTVYLQMNSLKPEDTAVYTCAAELTNRNPGAYYYTWAYDYWGQGTQVTVSS
B4: Nanobody 191E4 (VHH)
VHH: EVQLVESGGGLVQAGGSLRLSCAASGPTFSADTMGWFRQAPGKEREFVATIPWSGGIAYYSDSVKGRFTMSRDNAKNTVDLQMNSLKPEDTALYYCAGSSRIYIYSDSLSERSYDYWGQGTQVTVSS
B5: Nanobody 15H8 (VHH)
VHH: EVQLVESGGGLVQAGGSLRLSCAASGRSFSNYVLGWFRQAPGKEREFVAAISFRGDSAIGAPSVEGRFTISRDNAKNTGYLQMNSLVPDDTAVYYCGAGTPLNPGAYIYDWSYDYWGRGTQVTVSS
B6: Nanobody NC41 (VHH)
VHH: EVQLVESGGGLVQAGGSLSISCAASGGSLSNYVLGWFRQAPGKEREFVAAINWRGDITIGPPNVEGRFTISRDNAKNTGYLQMNSLAPDDTAVYYCGAGTPLNPGAYIYDWSYDYWGRGTQVTVSS
B7: NC41v06 (VHH)
VHH: EVQLLESGGGLVQPGGSLRLSCAASGGSLSNYVLGWFRQAPGKGREFVAAINWRDDITIGPPNVEGRFTISRDNAKNTLYLQMNSLRPEDTAVYYCGAGTPLNPGAYIYDWSYDYWGQGTLVTVSS
B8: NC41v17 (VHH)
VHH: EVQLLESGGGLVQPGGSLRLSCAASGGSLSNYVLGWFRQAPGKGREFVAAINWRGDITIGPPNVEGRFTISRDNSKNTLYLQMNSLRPEDTAVYYCGAGTPLNPGAYIYDWSYDYWGQGTLVTVSS
B9: Nanobody NC23 (VHH)
VHH: EVQLVESGGGLVQPGGSLRLSCAASGRTFSSIAMGWFRQAPGKEREFVAAISWSRGRTFYADSVKGRFIISRDDAANTAYLQMNSLKPEDTAVYYCAVDTASWNSGSFIYDWAYDHWGQGTQVTVSS
B10: Nanobody 15B3 (VHH)
VHH: EVQLVESGGGLVQPGGSLRLSCAASGLTLDYYALGWFRQAPGKEREGVSCISSSDHSTTYTDSVKGRFTISWDNAKNTLYLQMNSLKPGDTAVYYCAADPALGCYSGSYYPRYDYWGQGTQVTVSS

Columns and labels:
Test in all cases: cell-based or functional assay
[1] = target: F protein of hRSV strain A-2 (hRSV strain A-2)
[2] = target: F protein of hRSV strain B-1 (hRSV strain B-1)
[3] = target: F protein of hRSV strain B-1 (hRSV strain B-1); remark: listed apart in the source
[4] = target: F protein of hRSV strain Long (hRSV strain Long)

Binder | RSV neutralization IC50 [1] [µM] | RSV neutralization IC50 [2] [µM] | Neutralization IC50 (first assay) [3] [µM] | other results
B1 | 0.177 | 2.69 |  | 
B2 | 0.227 |  |  | 
B3 | 0.298 |  |  | 
B4 |  | 4.33 |  | 
B5 | 0.218 | 2.34 |  | 
B6 | 0.026 | 4 | 4.71 | Neutralization IC50 (second assay) [3]: 3.29 µM
B7 |  |  | 0.806 | 
B8 |  |  | 0.677 | Neutralization IC50 (first assay) [4]: 0.249 µM; Neutralization IC50 (second assay) [4]: 0.149 µM; Neutralization IC50 (second assay) [3]: 0.346 µM
B9 | 0.109 |  |  | 
B10 |  | 1.27 |  | 

Source: patent publication US20150118233A1 (Ablynx, published 2015)
